# T1: CD20 expressed on cells (human Daudi Burkitt's lymphoma cells); CD20-transfected mouse NS0 cells; human … (human, UniProt P11836 1-297)
# T1 construct: whole, on cells; SU-DHL4 cells also express CD47 at low levels; also called NS0/CD20
# T1 sequence (looked up): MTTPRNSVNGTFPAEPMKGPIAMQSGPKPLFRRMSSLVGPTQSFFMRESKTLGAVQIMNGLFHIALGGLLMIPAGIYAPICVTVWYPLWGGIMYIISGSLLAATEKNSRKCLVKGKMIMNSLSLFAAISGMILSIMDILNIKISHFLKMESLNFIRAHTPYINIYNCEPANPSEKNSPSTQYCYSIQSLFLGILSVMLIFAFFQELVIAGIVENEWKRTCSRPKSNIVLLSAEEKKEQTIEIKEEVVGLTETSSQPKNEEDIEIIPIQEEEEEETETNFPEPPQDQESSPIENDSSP
# B1: anti-CD52/anti-CD20 TetBiAb (bispecific antibody, human IgG1, kappa)
# chain: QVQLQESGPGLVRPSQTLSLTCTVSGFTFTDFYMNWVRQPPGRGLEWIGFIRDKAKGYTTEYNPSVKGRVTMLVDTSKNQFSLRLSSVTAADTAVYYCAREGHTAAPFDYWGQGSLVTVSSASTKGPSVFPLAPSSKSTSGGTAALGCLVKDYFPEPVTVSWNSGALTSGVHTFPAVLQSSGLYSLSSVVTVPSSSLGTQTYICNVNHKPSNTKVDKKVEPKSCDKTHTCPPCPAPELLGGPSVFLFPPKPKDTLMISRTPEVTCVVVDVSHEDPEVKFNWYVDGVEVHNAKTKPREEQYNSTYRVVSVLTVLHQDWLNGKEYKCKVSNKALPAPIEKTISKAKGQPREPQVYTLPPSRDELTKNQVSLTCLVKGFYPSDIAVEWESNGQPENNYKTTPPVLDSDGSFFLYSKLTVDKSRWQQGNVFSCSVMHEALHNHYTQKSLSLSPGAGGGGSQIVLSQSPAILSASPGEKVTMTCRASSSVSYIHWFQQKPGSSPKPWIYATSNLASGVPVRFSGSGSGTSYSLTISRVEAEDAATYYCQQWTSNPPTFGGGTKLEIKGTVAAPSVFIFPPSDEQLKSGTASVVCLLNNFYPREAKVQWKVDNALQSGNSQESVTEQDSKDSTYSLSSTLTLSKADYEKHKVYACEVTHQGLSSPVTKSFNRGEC
# light: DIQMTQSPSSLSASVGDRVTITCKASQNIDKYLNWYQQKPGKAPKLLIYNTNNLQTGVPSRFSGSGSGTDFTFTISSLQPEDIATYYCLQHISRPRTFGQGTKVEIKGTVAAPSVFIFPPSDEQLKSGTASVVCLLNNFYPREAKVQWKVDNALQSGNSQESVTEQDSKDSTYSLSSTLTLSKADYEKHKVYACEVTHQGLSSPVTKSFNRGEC
# heavy: QVQLQQPGAELVKPGASVKMSCKASGYTFTSYNMHWVKQTPGRGLEWIGAIYPGNGDTSYNQKFKGKATLTADKSSSTAYMQLSSLTSEDSAVYYCARSTYYGGDWYFNVWGAGTTVTVSAASTKGPSVFPLAPSSKSTSGGTAALGCLVKDYFPEPVTVSWNSGALTSGVHTFPAVLQSSGLYSLSSVVTVPSSSLGTQTYICNVNHKPSNTKVDKKVEPKSC
# notes: Hexameric TetBiAb from Campath and 2B8, IgG1 Fc
# B2: anti-CD20/anti-CD16 TetBiAb (bispecific antibody)
# chain: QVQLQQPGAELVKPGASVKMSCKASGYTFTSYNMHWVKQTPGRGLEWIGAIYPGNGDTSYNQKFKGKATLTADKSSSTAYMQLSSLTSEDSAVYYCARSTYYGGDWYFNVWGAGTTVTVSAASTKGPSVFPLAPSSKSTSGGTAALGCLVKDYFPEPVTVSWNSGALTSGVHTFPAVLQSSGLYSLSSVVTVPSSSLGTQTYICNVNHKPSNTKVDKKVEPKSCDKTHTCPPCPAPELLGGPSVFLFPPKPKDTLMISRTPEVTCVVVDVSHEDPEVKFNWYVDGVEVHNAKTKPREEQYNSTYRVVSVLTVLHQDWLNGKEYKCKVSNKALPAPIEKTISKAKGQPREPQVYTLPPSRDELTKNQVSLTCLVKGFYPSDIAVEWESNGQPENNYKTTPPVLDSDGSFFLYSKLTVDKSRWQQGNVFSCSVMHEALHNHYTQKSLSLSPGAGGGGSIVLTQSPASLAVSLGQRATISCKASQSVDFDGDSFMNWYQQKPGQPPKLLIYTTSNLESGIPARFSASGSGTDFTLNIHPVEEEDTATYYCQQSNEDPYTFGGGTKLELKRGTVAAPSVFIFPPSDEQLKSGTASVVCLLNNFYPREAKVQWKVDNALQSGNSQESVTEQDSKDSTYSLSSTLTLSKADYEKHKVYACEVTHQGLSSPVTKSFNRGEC
# light: QIVLSQSPAILSASPGEKVTMTCRASSSVSYIHWFQQKPGSSPKPWIYATSNLASGVPVRFSGSGSGTSYSLTISRVEAEDAATYYCQQWTSNPPTFGGGTKLEIKRGTVAAPSVFIFPPSDEQLKSGTASVVCLLNNFYPREAKVQWKVDNALQSGNSQESVTEQDSKDSTYSLSSTLTLSKADYEKHKVYACEVTHQGLSSPVTKSFNRGEC
# heavy: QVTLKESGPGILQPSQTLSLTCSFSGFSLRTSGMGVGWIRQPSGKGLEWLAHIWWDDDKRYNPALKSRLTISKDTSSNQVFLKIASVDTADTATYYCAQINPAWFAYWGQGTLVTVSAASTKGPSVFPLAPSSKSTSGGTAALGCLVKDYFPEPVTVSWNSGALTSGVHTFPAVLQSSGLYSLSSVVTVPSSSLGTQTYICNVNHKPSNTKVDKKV
# notes: Hexameric TetBiAb from 2B8 and 3G8, IgG1 Fc
# B3: anti-CD20/anti-CD52 TetBiAb (bispecific antibody, human IgG1, kappa)
# chain: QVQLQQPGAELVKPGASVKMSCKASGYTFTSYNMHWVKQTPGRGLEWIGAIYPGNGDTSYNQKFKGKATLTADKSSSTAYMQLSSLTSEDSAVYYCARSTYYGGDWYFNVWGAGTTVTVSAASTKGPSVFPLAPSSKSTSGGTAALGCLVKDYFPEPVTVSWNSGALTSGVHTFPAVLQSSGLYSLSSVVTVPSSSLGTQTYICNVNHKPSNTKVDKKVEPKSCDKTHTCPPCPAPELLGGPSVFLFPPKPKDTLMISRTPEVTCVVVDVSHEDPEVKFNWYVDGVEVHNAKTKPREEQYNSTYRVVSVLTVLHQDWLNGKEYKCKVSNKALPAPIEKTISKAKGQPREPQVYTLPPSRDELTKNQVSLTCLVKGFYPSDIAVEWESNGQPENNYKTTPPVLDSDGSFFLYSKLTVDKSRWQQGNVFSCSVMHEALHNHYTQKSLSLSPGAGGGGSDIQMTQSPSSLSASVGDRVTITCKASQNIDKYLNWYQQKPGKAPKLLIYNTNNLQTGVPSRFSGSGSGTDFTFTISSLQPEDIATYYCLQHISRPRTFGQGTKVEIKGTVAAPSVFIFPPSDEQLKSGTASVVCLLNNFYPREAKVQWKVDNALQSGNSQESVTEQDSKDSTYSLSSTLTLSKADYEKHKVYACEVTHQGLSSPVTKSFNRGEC
# light: B2 light
# heavy: QVQLQESGPGLVRPSQTLSLTCTVSGFTFTDFYMNWVRQPPGRGLEWIGFIRDKAKGYTTEYNPSVKGRVTMLVDTSKNQFSLRLSSVTAADTAVYYCAREGHTAAPFDYWGQGSLVTVSAASTKGPSVFPLAPSSKSTSGGTAALGCLVKDYFPEPVTVSWNSGALTSGVHTFPAVLQSSGLYSLSSVVTVPSSSLGTQTYICNVNHKPSNTKVDKKVEPKSC
# notes: Hexameric TetBiAb from 2B8 and Campath, IgG1 Fc
# B4: anti-CD20/anti-CD47 TetBiAb (bispecific antibody, human IgG1, kappa)
# chain: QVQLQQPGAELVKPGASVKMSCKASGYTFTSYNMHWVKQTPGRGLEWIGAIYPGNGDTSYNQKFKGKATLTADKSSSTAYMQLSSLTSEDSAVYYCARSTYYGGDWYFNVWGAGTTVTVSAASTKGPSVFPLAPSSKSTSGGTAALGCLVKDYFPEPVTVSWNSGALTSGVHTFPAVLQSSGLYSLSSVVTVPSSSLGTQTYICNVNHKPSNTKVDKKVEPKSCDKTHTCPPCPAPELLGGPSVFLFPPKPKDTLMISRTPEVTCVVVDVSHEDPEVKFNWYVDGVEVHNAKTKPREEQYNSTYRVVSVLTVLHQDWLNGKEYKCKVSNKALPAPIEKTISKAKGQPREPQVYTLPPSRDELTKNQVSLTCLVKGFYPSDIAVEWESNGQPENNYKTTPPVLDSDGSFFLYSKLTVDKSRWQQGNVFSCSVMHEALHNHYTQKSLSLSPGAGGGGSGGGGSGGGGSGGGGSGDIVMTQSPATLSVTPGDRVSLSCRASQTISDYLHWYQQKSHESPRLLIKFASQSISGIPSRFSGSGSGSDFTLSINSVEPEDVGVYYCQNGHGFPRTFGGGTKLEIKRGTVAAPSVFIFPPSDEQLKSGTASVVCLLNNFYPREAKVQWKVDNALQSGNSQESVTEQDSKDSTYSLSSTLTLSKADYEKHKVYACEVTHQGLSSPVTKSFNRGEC
# light: B2 light
# heavy: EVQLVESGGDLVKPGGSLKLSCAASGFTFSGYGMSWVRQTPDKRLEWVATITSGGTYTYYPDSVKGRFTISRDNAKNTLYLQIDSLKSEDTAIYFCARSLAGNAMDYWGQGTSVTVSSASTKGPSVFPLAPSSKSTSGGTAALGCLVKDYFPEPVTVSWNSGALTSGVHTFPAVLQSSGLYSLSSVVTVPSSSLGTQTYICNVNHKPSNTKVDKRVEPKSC
# notes: Hexameric TetBiAb from 2B8 and B6H12, IgG1 Fc; Alexa 488-labelled in the SU-DHL4 assay
# Columns and labels:
# [1] = molecular target: T1, CD20 expressed on cells (human Daudi …); test: flow cytometry on Daudi cells (CD20+, CD52-), detection with TRITC F(ab')2 goat anti-human IgG Fcγ
# [2] = molecular target: FcγRIII (CD16) on NK cells (human, UniProt P08637 17-254); test: cell-based or functional assay
# [3] = molecular target: T1, CD20 expressed on cells (human Daudi …); test: flow cytometry on CD20-expressing cells (Daudi by legend paragraph 36 and paragraph 140; the method paragraph 139 names Ramos), detection with TRITC F(ab')2 goat anti-human IgG Fcγ
# [4] = molecular target: T2, CD47 expressed on cells (human U937 histiocytic lymphoma cells; human SU-DHL4 cells; human A431 cells) (human, UniProt Q08722 19-323); test: flow cytometry on U937 cells (CD47+, CD20-), detection with TRITC F(ab')2 goat anti-human IgG Fcγ
# T2 construct: whole, on cells
# [5] = molecular target: T1, CD20 expressed on cells (human Daudi …); test: flow cytometry on CD20-transfected NS0 cells, detection with TRITC F(ab')2 goat anti-human IgG Fcγ
# Chain of FcγRIII (CD16) on NK cells (P08637 17-254): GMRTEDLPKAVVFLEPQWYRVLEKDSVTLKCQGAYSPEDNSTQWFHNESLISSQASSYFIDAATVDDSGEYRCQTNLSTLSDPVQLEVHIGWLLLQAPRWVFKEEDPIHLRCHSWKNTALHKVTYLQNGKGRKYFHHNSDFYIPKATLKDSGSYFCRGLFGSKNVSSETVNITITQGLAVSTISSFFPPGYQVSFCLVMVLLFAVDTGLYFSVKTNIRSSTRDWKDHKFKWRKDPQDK
binder,measurement,setting,value
B1,binding result,[1],no binding (tested: 100 µg/ml)
B2,"antibody-dependent cell-mediated cytotoxicity (ADCC), LDH release from Ramos cells with NK effector cells",[2],10 fold
same,EC50 (read off the curve),[3],~3 µg/mL
B3,EC50 (read off the curve),[1],~5 µg/mL
B4,EC50 (read off the curve),[4],~10 µg/mL
same,binding result,[5],binds

# Reference: patent US20160009824A1 (Merck KGaA, published 2016)
